Source: US20220289833A1 (BIOSION, published 2022)
Like-named read-outs stand apart in the source and are kept apart here. One block for each binder: values may come before it.

What was measured:
[1] = molecular target: T1, Recombinant cynomolgus monkey TSLP-his (cynomolgus monkey); test: indirect ELISA on coated cynomolgus TSLP-his
T1 construct: Prepared in-house; Amine-coupled to CM5 chip in SPR, coated on plates in the indirect ELISA; also called cynomolgus TSLP; cynomolgus TSLP-his protein
T1 chain: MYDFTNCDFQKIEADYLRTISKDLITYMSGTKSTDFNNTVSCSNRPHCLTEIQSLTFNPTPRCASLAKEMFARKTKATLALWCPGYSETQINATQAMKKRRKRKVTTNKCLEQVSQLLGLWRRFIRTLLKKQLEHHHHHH

human TSLP-Fc [2] = molecular target: T2, human TSLP-Fc (human, biotin-labeled); test: competitive ELISA: antibody pre-mixed with biotin-labeled human TSLP-Fc; blocked binding to coated human TSLPR-Fc/IL7Ra-Fc
T2 construct: Prepared in-house; also called biotin-labeled human TSLP-Fc; TSLP-Fc-biotin

human TSLP-Fc [3] = molecular target: T2, human TSLP-Fc; test: cell-based ligand-blocking FACS: antibody pre-mixed with human TSLP-Fc; blocked binding to BAF3-3E6 cells expressing human TSLPR and IL7R
human TSLP-Fc [4] = molecular target: T2, human TSLP-Fc; test: competitive ELISA: antibody pre-mixed with biotin-labeled human TSLP-Fc; blocked binding to coated human TSLPR-Fc/IL7Ra-Fc; remark: listed apart in the source
human TSLP-Fc [5] = molecular target: T2, human TSLP-Fc; test: cell-based ligand-blocking FACS: antibody pre-mixed with human TSLP-Fc; blocked binding to BAF3-3E6 cells expressing human TSLPR and IL7R; remark: listed apart in the source
human TSLP-Fc [6] = molecular target: T2, human TSLP-Fc; test: competitive ELISA: antibody pre-mixed with biotin-labeled human TSLP-Fc; blocked binding to coated Tezepelumab
human TSLP-Fc [7] = molecular target: T2, human TSLP-Fc; test: competitive ELISA: antibody pre-mixed with biotin-labeled human TSLP-Fc; blocked binding to coated human TSLPR-Fc/IL7Ra-Fc; remark: listed apart in the source
human TSLP-Fc [8] = molecular target: T2, human TSLP-Fc; test: competitive ELISA: antibody pre-mixed with biotin-labeled human TSLP-Fc; blocked binding to coated Tezepelumab; remark: listed apart in the source
[9] = molecular target: T1, Recombinant cynomolgus monkey TSLP-his; test: indirect ELISA on coated cynomolgus TSLP-his
[10] = molecular target: T1, Recombinant cynomolgus monkey TSLP-his; test: SPR, Biacore T200; cynomolgus TSLP-his amine-coupled to CM5 chip, antibody as analyte; 1:1 Langmuir fit
human TSLP-Fc [11] = molecular target: T2, human TSLP-Fc; test: competitive ELISA: antibody pre-mixed with biotin-labeled human TSLP-Fc; blocked binding to coated Tezepelumab; remark: listed apart in the source
human TSLP-Fc [12] = molecular target: T2, human TSLP-Fc; test: cell-based ligand-blocking FACS: antibody pre-mixed with human TSLP-Fc; blocked binding to BAF3-3E6 cells expressing human TSLPR and IL7R; remark: listed apart in the source
human TSLP-Fc [13] = molecular target: T2, human TSLP-Fc; test: competitive ELISA: antibody pre-mixed with biotin-labeled human TSLP-Fc; blocked binding to coated Tezepelumab; remark: listed apart in the source
human TSLP-Fc [14] = molecular target: T2, human TSLP-Fc; test: competitive ELISA: antibody pre-mixed with biotin-labeled human TSLP-Fc; blocked binding to coated human TSLPR-Fc/IL7Ra-Fc; remark: listed apart in the source
human TSLP-Fc [15] = molecular target: T2, human TSLP-Fc; test: cell-based ligand-blocking FACS: antibody pre-mixed with human TSLP-Fc; blocked binding to BAF3-3E6 cells expressing human TSLPR and IL7R; remark: listed apart in the source
[16] = molecular target: T1, Recombinant cynomolgus monkey TSLP-his; test: SPR, BIAcore; protocol of Example 2
[17] = molecular target: T3, Recombinant human TSLP-his (human, UniProt Q969D9 29-159); test: SPR, Biacore T200; TSLP-his amine-coupled to CM5 chip, antibody as analyte; 1:1 Langmuir fit
T3 construct: Prepared in-house; Amine-coupled to CM5 chip in SPR, loaded on APS sensors in Octet, biotin-labeled in the capture ELISA, unlabeled in the cell functional assays; also called human TSLP-his protein

[18] = molecular target: T1, Recombinant cynomolgus monkey TSLP-his; test: SPR, Biacore T200; cynomolgus TSLP-his amine-coupled to CM5 chip, antibody as analyte
[19] = molecular target: T3, Recombinant human TSLP-his; test: capture ELISA: antibody captured on anti-IgG Fc coat, biotin-labeled human TSLP-his detected with streptavidin-HRP

EC50 [1]: 105 pM
IC50 (human TSLP-Fc [2]): 990 pM
IC50 (human TSLP-Fc [3]): 760 pM
IC50 (human TSLP-Fc [4]): 6270 pM
IC50 (human TSLP-Fc [5]): 1450 pM
IC50 (human TSLP-Fc [6]): 180 pM
IC50 (human TSLP-Fc [7]): 506 pM
IC50 (human TSLP-Fc [8]): 5780 pM
EC50 [9]: 126 pM
Kd [10]: 73.3 pM
IC50 (human TSLP-Fc [11]): 495 pM
IC50 (human TSLP-Fc [12]): 728 pM
IC50 (human TSLP-Fc [13]): 486 pM
IC50 (human TSLP-Fc [14]): 77.7 pM
IC50 (human TSLP-Fc [15]): 1480 pM
Kd [16]: 67.2 pM
B1: Tezepelumab (antibody, human IgG2, lambda, V domains shown)
VH: QMQLVESGGGVVQPGRSLRLSCAASGFTFRTYGMHWVRQAPGKGLEWVAVIWYDGSNKHYADSVKGRFTITRDNSKNTLNLQMNSLRAEDTAVYYCARAPQWELVHEAFDIWGQGTMVTVSS
VL: SYVLTQPPSVSVAPGQTARITCGGNNLGSKSVHWYQQKPGQAPVLVVYDDSDRPSWIPERFSGSNSGNTATLTISRGEAGDEADYYCQVWDSSSDHVVFGGGTKLTVLG
notes: also called TSLP-BM; benchmark

IC50 (human TSLP-Fc [7]): 114 pM
EC50 [9]: 4180 pM
Kd [17]: < 14.9 pM
koff [17]: < 1e-05 s⁻¹
kon [17]: 672000 M⁻¹ s⁻¹
IC50 (human TSLP-Fc [11]): 120 pM
Kd [18]: 7230 pM
EC50 [19]: 170 pM
IC50 (human TSLP-Fc [15]): 2140 pM
B2: Mouse D1C2H1H1 (antibody, V domains shown)
VH: QVTLKESGPGILQPSQTLSLTCSFSGFSLSTYGMGIGWIRLPSGKGLEWLASIWWDDNRYFNAALKSRLTISKDASKNQVFLKIASVDTADTATYYCARIEDGYYSYHSYWGQGTLVTVSA
VL: DIVLTQSPASLAVSLGQRATISCKASQSVDFDGDSYMNWFQQKPGQPPKLLIYAASNLVSGIPARFSGSGSGTDFTLNIHPVEEEDAATYYCQQIDEDPYTFGGGTKLEIE
notes: Mouse hybridoma mAb
